Test results: patent US20160324962A1, “COMPOSITIONS AND METHODS FOR TREATING SARCOMA” (MEDIMMUNE, LLC, priority 2013, published 2016)

Key:
Hs729 cells = test: In vitro cell proliferation (CellTiter-Glo), no exogenous IGF; assay type: cell-based; settings: 3 days
Procedure: (§1) To determine the effect of treatment with MEDI-573 antibody on the growth of tumor cells, three rhabdomyosarcoma cell lines (RD, SJCRH30, and Hs729); three Ewing's sarcoma cell lines (RD-ES, TC-71, and SK-ES-1), and four osteosarcoma cell lines (SJSA-1, KHOS, MG-63, and SAOS2) were treated with MEDI-573, an anti-IGF antibody, in the absence of exogenous IGF-1 or IGF-2.
(§2) Sarcoma cell lines were cultured overnight in regular growth medium. The following day, medium containing 0.1% charcoal stripped fetal bovine serum (FBS) was added and the cells incubated overnight. The next day, cells were treated with various amounts of MEDI-573 and the cultures incubated for 3 days. Proliferation was quantified using the CellTiter-Glo (CTG) reagent (Promega, Madison, Wis.).

KHOS cells [1] = test: as above; assay type: cell-based; settings: 3 days
Procedure: as §1, §2

MG-63 cells = test: as above; assay type: cell-based; settings: 3 days
Procedure: as §1, §2

RD-ES cells = test: as above; assay type: cell-based; settings: 3 days
Procedure: as §1, §2

SAOS2 cells = test: as above; assay type: cell-based; settings: 3 days
Procedure: as §1, §2

SJCRH30 cells = test: as above; assay type: cell-based; settings: 3 days
Procedure: as §1, §2

SK-ES-1 cells = test: as above; assay type: cell-based; settings: 3 days
Procedure: as §1, §2

TC-71 cells = test: as above; assay type: cell-based; settings: 3 days
Procedure: as §1, §2

KHOS cells [2] = test: IGF-induced proliferation (CTG); assay type: cell-based
Procedure: (§3) To access the effect of MEDI-573 on IGF-Induced proliferation, MEDI-573 or isotype control, was added to the cells for 30 minutes at 37° C. IGF-1 or IGF-2 was then added to the appropriate wells and incubated for 3 days. Proliferation was quantified using the CTG reagent.

RD cells = test: IGF-induced proliferation (CTG); assay type: cell-based
Procedure: as §3

SJSA-1 cells = test: IGF-induced proliferation (CTG); assay type: cell-based
Procedure: as §3

KHOS xenograft model = test: Xenograft efficacy study in mice; assay type: in vivo; settings: KHOS xenografts, MEDI-573 alone
Description: (§4) Although proliferation of SK-ES-1 and SJCRH30 cells was inhibited by MEDI-573 in vitro in the absence of exogenous IGFs, the in vivo growth of these two models was not effected by MEDI-573 treatment.
(§5) For in vivo efficacy studies, five million sarcoma cells in 50% matrigel were inoculated subcutaneously into each female athymic nude mice. When tumors reach approximately 150-200 mm^3, mice were randomly assigned into groups (10 mice per group). MEDI-573 was administrated intraperitoneally twice per week at indicated doses. The dose regimen for AZD2014 was oral once every day, for rapamycin was intraperitoneal injection every 3 days. Tumor volumes were measured twice weekly with calipers. Tumor growth inhibition was calculated on the last day of study relative to the initial and final mean tumor volume of the control group.

SJCRH30 = test: Xenograft efficacy study in mice; assay type: in vivo; settings: SJCRH30 model
Description: as §4, §5

[3] = system: SJSA-1 (an osteosarcoma model) xenografts; test: Xenograft efficacy study in mice; assay type: in vivo; settings: SJSA-1 xenografts, MEDI-573 alone
Description: as §4, §5

SK-ES-1 = test: Xenograft efficacy study in mice; assay type: in vivo; settings: SK-ES-1 model
Description: as §4, §5

[4] = Body weight / tolerability in xenograft mice; assay type: in vivo; settings: MEDI-573 alone
Description: as §4
The combination treatments were tolerated as no significant body weight loss was observed (FIG. 17B).

murine IGF-1 = murine IGF-1 (Mus musculus, UniProt P05017); test: Binding affinity
IGF-1R phosphorylation = test: pIGF-1R assay in sarcoma cells (MSD); assay type: cell-based
Procedure: When exogenous IGF-1 or IGF-2 was added to cells, there was an induction of phosphorylation of IGF-1R and IR-A in all cells examined.
The sarcoma lines were cultured overnight in complete medium. The following day, medium containing 0.1% charcoal stripped fetal bovine serum (FBS) was added to the cultures and the cultures incubated overnight. The next day, cells were treated with various treatments for 5 minutes. Media was removed; cells were washed and lysed with 1.0% Triton X lysis buffer with protease and phosphatase inhibitors. Approximately 8-20 μg of total protein was loaded on MSD 96-Well MULTI-SPOT plates and the level of total and phosphorylated IGF-1R, IR-A and IRS-1 protein was determined using the Insulin Signaling Panel (total protein) and Insulin Signaling Panel (phosphoprotein) Whole Cell Lysate kits according to the manufacturers protocol. The level of total and phosphorylated AKT was determined using the Phospho (Ser473)/Total AKT Assay Whole Cell Lysate kit according to manufacturer's standard protocol.

human IGF-1 = molecular target: T1, human IGF-1 (Homo sapiens, UniProt P05019); test: IGF levels in tumor and plasma after injection of human IGF; assay type: in vivo, mice; settings: RD-ES tumor lysates and plasma, intraperitoneal pretreatment for 6 hours, 15 min after IGF-1 injection
T1 construct: purchased R&D Systems (Minneapolis, Minn.)
Procedure: (§6) Thus, human IGF-1 and IGF-2 (IGF-1/-2) were injected into mice in an attempt to understand the role of IGF ligands in driving tumor growth when delivered by endocrine or paracrine secretion, and the effect of MEDI-573 in inhibiting this function. Fifteen minutes after IGF-1 or IGF-2 injection, high levels of IGF-1 or IGF-2 were detected both in RD-ES tumor and plasma.
(§7) For in vivo mechanism of action (MOA) studies, when tumors reached approximately 400 mm^3, a single dose of MEDI-573 was given. Tumor and plasma samples were collected 4 hr after dosing to assess the effect of MEDI-573 on autocrine IGF signaling. In another set of mice, 6 hr after MEDI-573 dosing, human IGF-1 or IGF-2 was injected by tail-vein. Tumor and plasma samples were collected 15 min after IGFs injection to assess the effect of MEDI-573 on IGF-1/-2 induced signaling.

human IGF-2 = molecular target: T2, human IGF-2 (Homo sapiens, UniProt P01344); test: as above; assay type: in vivo, mice; settings: RD-ES tumor lysates and plasma, intraperitoneal pretreatment for 6 hours, 15 min after IGF-2 injection
T2 construct: purchased R&D Systems (Minneapolis, Minn.)
Procedure: as §6, §7

T1 sequence (P05019 49-118 limits assumed): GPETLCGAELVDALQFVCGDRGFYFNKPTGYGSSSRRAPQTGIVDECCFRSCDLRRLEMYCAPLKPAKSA
T2 sequence (P01344 25-91 limits assumed): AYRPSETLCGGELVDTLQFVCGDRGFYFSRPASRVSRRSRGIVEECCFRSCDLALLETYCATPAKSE
Chain of murine IGF-1 (P05017 1-118 limits assumed): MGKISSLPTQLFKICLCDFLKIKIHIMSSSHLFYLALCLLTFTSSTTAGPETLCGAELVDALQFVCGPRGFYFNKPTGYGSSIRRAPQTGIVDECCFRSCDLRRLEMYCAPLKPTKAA

B1: MEDI-573: fully human monoclonal IgG2 lambda antibody that binds IGF-2 with cross reactivity to IGF-1; hybridoma 7.159.2, ATCC PTA-7424 (antibody)
heavy: QVQLVQSGAEVKKPGASVKVSCKASGYTFTSYDINWVRQATGQGLEWMGWMNPNSGNTGYAQKFQGRVTMTRNTSISTAYMELSSLRSEDTAVYYCARDPYYYYYGMDVWGQGTTVTVSSASTKGPSVFPLAPCSRSTSESTAALGCLVKDYFPEPVTVSWNSGALTSGVHTFPAVLQSSGLYSLSSVVTVPSSNFGTQTYTCNVDHKPSNTKVDKTVERKCCVECPPCPAPPVAGPSVFLFPPKPKDTLMISRTPEVTCVVVDVSHEDPEVQFNWYVDGVEVHNAKTKPREEQFNSTFRVVSVLTVVHQDWLNGKEYKCKVSNKGLPAPIEKTISKTKGQPREPQVYTLPPSREEMTKNQVSLTCLVKGFYPSDIAVEWESNGQPENNYKTTPPMLDSDGSFFLYSKLTVDKSRWQQGNVFSCSVMHEALHNHYTQKSLSLSPGK
light: QSVLTQPPSVSAAPGQKVTISCSGSSSNIENNHVSWYQQLPGTAPKLLIYDNNKRPSGIPDRFSGSKSGTSATLGITGLQTGDEADYYCETWDTSLSAGRVFGGGTKLTVLGQPKAAPSVTLFPPSSEELQANKATLVCLISDFYPGAVTVAWKADSSPVKAGVETTTPSKQSNNKYAASSYLSLTPEQWKSHRSYSCQVTHEGSTVEKTVAPTECS
Q: With B1 as the molecule, how does the “IC50 (μM)” value (Hs729 cells) read?
A: Its value is “Inactive”.

Q: And the “IC50 (μM)” value (KHOS cells [1])?
A: Its value is “Inactive”.

Q: And the “IC50 (μM)” value (MG-63 cells)?
A: Its value is “Inactive”.

Q: And the IC50 (RD-ES cells)?
A: The IC50 was 6.9 µM.

Q: What about the “IC50 (μM)” value (SAOS2 cells) of the same molecule?
A: Its value is “Inactive”.

Q: And the IC50 (SJCRH30 cells)?
A: Its IC50 is 3.2 µM.

Q: What about the IC50 (SK-ES-1 cells) of the same molecule?
A: The IC50 was 3.2 µM.

Q: And the IC50 (TC-71 cells)?
A: The IC50 was 2700 nM.

Q: What about the “IGF-1 IC50 (μM)” value (KHOS cells [2]; KHOS cells stimulated with IGF-1) of the same molecule?
A: The value was “No Induction”.

Q: What about the “IGF-2 IC50 (μM)” value (KHOS cells [2]; KHOS cells stimulated with IGF-2) of the same molecule?
A: Its value is “No Induction”.

Q: What about the effect on growth (KHOS cells [2]; KHOS cells, with or without IGF stimulation) of the same molecule?
A: The effect on growth was “failed to have any significant effect”.

Q: And the “IGF-1 IC50 (μM)” value (RD cells; RD cells stimulated with IGF-1)?
A: Its value is “No Induction”.

Q: And the “IGF-2 IC50 (μM)” value (RD cells; RD cells stimulated with IGF-2)?
A: The value was “No Induction”.

Q: What about the effect on growth (RD cells; RD cells, with or without IGF stimulation) of the same molecule?
A: The effect on growth was “failed to have any significant effect”.

Q: And the “IGF-1 IC50 (μM)” value (SJSA-1 cells; SJSA-1 cells stimulated with IGF-1)?
A: Its value is “No Induction”.

Q: And the “IGF-2 IC50 (μM)” value (SJSA-1 cells; SJSA-1 cells stimulated with IGF-2)?
A: Its value is “No Induction”.

Q: What about the response in vivo (KHOS xenograft model) of the same molecule?
A: The response in vivo was “did not respond”.

Q: And the in vivo growth (SJCRH30)?
A: Its in vivo growth is “not effected”.

Q: And the tumor growth inhibition [3]?
A: Its tumor growth inhibition is “Comparable results”.

Q: And the in vivo growth (SK-ES-1)?
A: Its in vivo growth is “not effected”.

Q: What about the body weight [4] of the same molecule?
A: Its body weight is “no loss of body weight was observed”.

Q: What about the binding affinity (murine IGF-1) of the same molecule?
A: The binding affinity was “low binding affinity”.

Q: And the “autophosphorylation of IGF-1R” value (IGF-1R phosphorylation; RD-ES, TC-71, SK-ES-1, and SJSA-1 cells)?
A: Its value is “inhibited autophosphorylation”.

Q: And the “IGF-1/-2-induced activation of IGF-1R” value (IGF-1R phosphorylation; pretreatment with MEDI-573, exogenous IGF-1 or IGF-2)?
A: Its value is “inhibited”.

Q: And the “reduction of IGF-1 levels” value (human IGF-1)?
A: Its value is “approximately 50%”.

Q: What about the “reduction of IGF-2 levels” value (human IGF-2) of the same molecule?
A: Its value is “almost completely”.
